According to the nanobody polyreactivity screen of Harvey et al. (2022):

experiment: yeast display, Sf9 membrane polyspecificity reagent, FACS + sequencing; frameworks hold sequencing errors
In short: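 Galactose-induced (36–48 hours) yeast carrying a synthetic nanobody display library were exposed to 10% biotinylated, detergent-solubilized Sf9 membrane reagent at 4 °C for 1 hour. FACS followed streptavidin microbead enrichment, using low and high (top ~1%) gates for expression (anti-HA) and reagent binding (streptavidin). Colony PCR, MiSeq 2 × 250 sequencing and CDR-length filtering followed. Labels for polyreactivity reflect the gate of origin.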

Row | Sequence | polyreactivity (PSR sort gate)
1 | QVQLVESGGGLVQAGGSLRLSCAASGGILHYYAMGWYRQAPGKERELVAAISWSGGSTYYADSVKGRFTISRDNAKNTVYLQMNSLKPEDTAVYYCNKVGVAYIFGWMDYWGQGTQVTVSS | high polyreactivity
2 | QVQLVESGGGLVQAGGSLRLSCAASGGILSYNTMGWYRQAPGKERELVAAITSSGGRTYYADSVKGRFTISRDNAKNTVYLQMNSLKPEDTAVYYCNTVYYFTYYYWGQGTQVTVSS | high polyreactivity
3 | QVQLVESGGGLVQAGGSLRLSCAASGGILVFYAMGWYRQAPGKERELVAAINVSGGSTYYADSVKGRFTISRDNAKNTVYLQMNSLKPEDTAVYYCAALGPYLDYGVQYGYWGQGTQVTVSS | low polyreactivity
4 | QVQLVESGGGLVQAGGSLRLSCAASGGIVGYYAMGWYRQAPGKERELVAAISWSGGSTYYADSVKGRFTISRDNAKNTVYLQMNSLKPEDTAVYYCAASDSYGYDYWGQGTQVTVSS | high polyreactivity
5 | QVQLVESGGGLVQAGGSLRLSCAASGGIYRYYAMGWYRQAPGKERELVAAISTSGTDTYYADSVKGRFTISRDNAKNTVYVQMNSLIPEDTAVYYCAAELYRYGFYEPIYPYSYDYWGQGTQVTVSS | low polyreactivity
6 | QVQLVESGGGLVQAGGSLRLSCAASGGLFTLNAMGWYRQAPGKEREMVAGISWSGDRTYYADSVKGRFTISRDNAKNTVYLQMNSLKPEDTAVYYCAAYDYWGQGTQVTVSS | low polyreactivity
7 | QVQLVESGGGLVQAGGSLRLSCAASGGNFVFNAMGWYRQAPGKERELVAVITYSGGRTYYADSVKGRFTISRDNAKNTVYLQMNSLKPEDTAVYYCNARYGYPLGHSIYYYWGQGTQVTVSS | low polyreactivity
8 | QVQLVESGGGLVQAGGSLRLSCAASGGTFAGNAMGWYRQAPGKERELVAAISKSGAITYYADSVKGRFTISRDNAKNTVYLQMNSLKPEDTAVYYCAARYLSGTSRYYYWGQGTQVTVSS | high polyreactivity
9 | QVQLVESGGGLVQAGGSLRLSCAASGGTFAIYVKGWYRLAPGKERELVAAITRVGSTYADSVKGRFTISRDNAKNTVYLQMNSLKPEDTAVYYCAAVSGVRSGPWRYDYLGQGTQVTVSS | high polyreactivity
10 | QVQLVESGGGLVQAGGSLRLSCAASGGTFARNAMGWYRQAPGKERELVAAIRGGVSTNYADSVKGRFTISRDNAKNTVYLQMNSLKPEDTAVYYCNASPPTLEGYWGQGTQVTVSS | low polyreactivity
11 | QVQLVESGGGLVQAGGSLRLSCAASGGTFDSYAMGWYRQAPGKERELVAAITQSGGRTYYADSVKGRFTISRDNAKNTDYLQMNSLKPEDTAVYYCAAKGITRYGYWGQGTQVTVSS | high polyreactivity
12 | QVQLVESGGGLVQAGGSLRLSCAASGGTFERNAMGWYRPAPGKERELVAAITGSGGRTYYADSVKGRFTISRDNAKNTVYLQMNSLKPEDTAVYYCAAVPWWKYNYWGQGTQVTVSS | high polyreactivity
13 | QVQLVESGGGLVQAGGSLRLSCAASGGTFEYNAMGWYRPAPGKERELVAAISKSGGRTYYADSVKGRFTISRDNAKNTVYLQMNSLKPEDTAVYYCAKRYVWGQGTQVTVSS | high polyreactivity
14 | QVQLVESGGGLVQAGGSLRLSCAASGGTFFYNAMGRYRQAPGKERELVAAINGGTSTNYADSVKGRFTISRDNAKNTVYLQMNSLKPEDTAVYYCAAVYRRLGRYDWYDYWGQGTQVTVSS | low polyreactivity
15 | QVQLVESGGGLVQAGGSLRLSCAASGGTFGRNVMGWYRQAPGKERELVAAISIRGGSTYYADSVKGRCTISRDNAKNTVYLQMNSLKAEDTAVYYCARDYPTDAYDYWGQGTQVTVSS | low polyreactivity
16 | QVQLVESGGGLVQAGGSLRLSCAASGGTFGRYAMGWYRQAPGKERELVADINWSGGGTYYADSVKGRFTISRDNAKNTVYLQMNSLKPEDTAVYYCGARVVEIFHWAGDYWGQGTQVTVSS | low polyreactivity
17 | QVQLVESGGGLVQAGGSLRLSCAASGGTFHHYAMGWYRQAPGKERELVASITNGASTYYADSVKGRFTISRDNAKNTVYLQMNSLKPEDTAVYYCAKRCRVGKYRYEYWGQGTQVTVSS | low polyreactivity
18 | QVQLVESGGGLVQAGGSLRLSCAASGGTFHYYAMGWYRQAPGKERELVAAINRSGDSTYYADSVKGRFTISRDNAKNTVYLQMNSLKPEDTAVFYCAVSYYGADGNPFPHDYWGQGTQVTVSS | low polyreactivity
19 | QVQLVESGGGLVQAGGSLRLSCAASGGTFIANAMGWYRPAPGKERELVAAITSRGGNTYYADSVKGRFTISRDNAKNTVYLQMNSLKPEDTSVYYCAARNDKRRQYYVGQSAFDFWGQGTQVTVSS | low polyreactivity
20 | QVQLVESGGGLVQAGGSLRLSCAASGGTFKTNAMGWYRQAPGTERELVAAIRYSGGDTYYADSVKGRFTISRDNAKNTVYLLLKSLKPEDTAVYYCAADFTLLYDYWGQGTQVTVSS | low polyreactivity
21 | QVQLVESGGGLVQAGGSLRLSCAASGGTFKYYDMGWYRQAPGKEREFVAAISKRVSSTYYADSVKGRFTISRDNAKNTVYLQMNSLKPEDTAVYYCAAYPVRYYNQYDYWGQGTQVTVSS | low polyreactivity
22 | QVQLVESGGGLVQAGGSLRLSCAASGGTFLYYMGWYRQAPGKERELVAAITFSGGSTYYADSVKGRFTISRDNAKNTVYLQMNSLKPEDTAVYYCAAGWYDWPKYLLSVYTYYLYDSWGQGTQVTVSS | low polyreactivity
23 | QVQLVESGGGLVQAGGSLRLSCAASGGTFMYYDMGWYRQAPGKERELVAAISSGSSTYYADSVKGRFTISRDNAKNTVYLQMNRLKQEDTAVYYCAKLHYAHYWGQGTQVTVSS | low polyreactivity
24 | QVQLVESGGGLVQAGGSLRLSCAASGGTFNAYAMGWYRQAPGKERELVATISYSGGSTYYADSVKGRFTISRDNAKNTVYLQMNSLKPEDTAVYYCAKVRYYPYSPGGLDYWGQGTQVTVSS | low polyreactivity
25 | QVQLVESGGGLVQAGGSLRLSCAASGGTFPFYAMGWYRQAPGKERELVAAITFTTSSTYYADSVKGRFTISRDNAKNTVYLQMNSLKPEDTAVYYCAVDYGWYSSYYREYDYWGQGTQVTVSS | low polyreactivity
26 | QVQLVESGGGLVQAGGSLRLSCAASGGTFPLYAMGWYRQAPGKARELVAAIRWSGGRTYYADSVKGRFTISRDNAMKTVYLQMNSLKPEDTAVYYCAADYDDGWGYDYWGQGTQVTVSS | high polyreactivity
27 | QVQLVESGGGLVQAGGSLRLSCAASGGTFPSNAMGWYRQAPGQERELVAAITGSSDTTYYADSVKGRFTISRDNAKNTVYLQMNSLKPEDTAVYYCAADTPRDTNRYEYWGQGTQVTVSS | low polyreactivity
28 | QVQLVESGGGLVQAGGSLRLSCAASGGTFPVYAMGWYRQAPGKERELVAAISYSGVTTYYADSVKGRFTISRDNAKNTVYLQMNSLKPEDTAVYYCNADWRRWYIFSYDYWGQGTQVTVSS | low polyreactivity
29 | QVQLVESGGGLVQAGGSLRLSCAASGGTFPYNAMGWYRQAPGTERELVAVITSGDGTYYADSVKGRFTNSRDNAKNTVYLQMNSLKPEDTAVDYCAAVIFWDVPYDYWGQGTQVTVSS | low polyreactivity
30 | QVQLVESGGGLVQAGGSLRLSCAASGGTFRAYAMGWYRQAPGKEREFVAAITWSGGRTYYADSVKGRFTISRDNANNTVYLQMNSLKPEDTEVYYCATDQGHYYHAEHDYWGQGTKVTVSS | low polyreactivity
